Source: PMC9020658

Molecular target: UAF (Rrn5-Rrn9-Rrn10-Uaf30-H3-H4);TBP (TATA-box-binding protein) ((budding yeast);(budding yeast)) (UniProt Q02983+P53437+P38204+Q08747+P61830+P02309+P13393)
Assay: cryo-EM 2.8 A
Settings: 30 mM Hepes-NaOH pH 7.5, 30 mM sodium citrate pH 6.0, 250 mM KCl, 2 mM DTT; filter binding 1 h at 4 C; footprinting on ice, then 2.5 mM MgCl2, 0.5 mM CaCl2 …

GAAAAAAAAAATATACGCTAAGATTTTTGGAGAATAGCTTAAATTGAAGTTTTTCTCGGCGAGAAATACGTAGTTAAGGCAGAGCGACAGAGAGGGCAAAAGAAAATAAAAGTAAGATTTTAGTTTGTAATGGGAGGGGGGGTTTAGTCAT (double strand) [35S rRNA promoter -190/-40 (cryo-EM DNA)]
binding: binds
